From patent US20170226211A1

Molecular target: Cynomolgus/Rhesus CTLA-4 (cynomolgus/rhesus)
Assay: ELISA, antibody coated, Cynomolgus/Rhesus CTLA-4 titrated

Substance: Ipilimumab (antibody)
- EC50 (read off the curve): 200 pM
